Data on one molecule can be found in publication PMC8794802.

Test in all cases: EMSA
On the technique in general: A gel shift assay detects complexes by their altered migration in electrophoresis.

Data set [1] has as its target T1, Pus7 D256A/E71A (Saccharomyces cerevisiae, UniProt Q08647 1-676, E71A;D256A).
T1 sequence: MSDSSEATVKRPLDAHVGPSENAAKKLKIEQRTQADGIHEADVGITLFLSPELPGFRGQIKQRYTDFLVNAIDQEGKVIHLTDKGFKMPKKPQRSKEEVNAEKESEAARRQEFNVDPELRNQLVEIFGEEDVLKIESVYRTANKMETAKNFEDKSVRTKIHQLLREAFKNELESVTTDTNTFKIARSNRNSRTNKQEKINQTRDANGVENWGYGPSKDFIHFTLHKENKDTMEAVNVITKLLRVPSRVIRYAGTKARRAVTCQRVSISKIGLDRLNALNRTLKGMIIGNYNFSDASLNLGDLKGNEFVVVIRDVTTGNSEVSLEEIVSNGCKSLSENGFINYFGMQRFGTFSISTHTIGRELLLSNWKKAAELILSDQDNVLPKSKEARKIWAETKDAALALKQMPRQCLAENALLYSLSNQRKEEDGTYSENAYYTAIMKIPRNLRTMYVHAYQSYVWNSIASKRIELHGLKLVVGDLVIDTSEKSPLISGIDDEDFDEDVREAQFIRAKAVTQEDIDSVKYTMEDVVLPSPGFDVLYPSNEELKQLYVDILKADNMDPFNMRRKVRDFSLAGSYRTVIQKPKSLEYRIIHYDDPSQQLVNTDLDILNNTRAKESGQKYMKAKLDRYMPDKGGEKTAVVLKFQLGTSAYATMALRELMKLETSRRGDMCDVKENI

Data set [2] has as its target T2, Pus7 D256A/N305A (Saccharomyces cerevisiae, UniProt Q08647 1-676, D256A;N305A).
T2 sequence: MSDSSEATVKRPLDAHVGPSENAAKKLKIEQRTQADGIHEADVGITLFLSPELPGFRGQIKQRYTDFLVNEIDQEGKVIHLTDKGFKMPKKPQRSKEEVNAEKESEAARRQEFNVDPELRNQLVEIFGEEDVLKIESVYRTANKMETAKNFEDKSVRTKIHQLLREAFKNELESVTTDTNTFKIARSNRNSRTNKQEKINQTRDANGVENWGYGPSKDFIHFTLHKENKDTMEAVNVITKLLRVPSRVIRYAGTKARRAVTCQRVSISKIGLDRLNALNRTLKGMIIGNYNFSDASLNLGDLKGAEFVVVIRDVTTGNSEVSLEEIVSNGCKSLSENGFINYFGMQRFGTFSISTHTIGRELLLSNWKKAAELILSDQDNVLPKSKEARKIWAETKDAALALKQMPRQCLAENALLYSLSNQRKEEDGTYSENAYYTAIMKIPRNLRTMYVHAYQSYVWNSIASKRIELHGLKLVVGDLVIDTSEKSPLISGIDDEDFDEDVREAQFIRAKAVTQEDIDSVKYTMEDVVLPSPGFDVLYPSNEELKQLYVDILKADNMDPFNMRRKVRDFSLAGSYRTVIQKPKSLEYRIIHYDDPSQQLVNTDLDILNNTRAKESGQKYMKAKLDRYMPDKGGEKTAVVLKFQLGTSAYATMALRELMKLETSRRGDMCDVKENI

Data set [3] has as its target T3, Pus7 D256A/H161A (Saccharomyces cerevisiae, UniProt Q08647 1-676, H161A;D256A).
T3 sequence: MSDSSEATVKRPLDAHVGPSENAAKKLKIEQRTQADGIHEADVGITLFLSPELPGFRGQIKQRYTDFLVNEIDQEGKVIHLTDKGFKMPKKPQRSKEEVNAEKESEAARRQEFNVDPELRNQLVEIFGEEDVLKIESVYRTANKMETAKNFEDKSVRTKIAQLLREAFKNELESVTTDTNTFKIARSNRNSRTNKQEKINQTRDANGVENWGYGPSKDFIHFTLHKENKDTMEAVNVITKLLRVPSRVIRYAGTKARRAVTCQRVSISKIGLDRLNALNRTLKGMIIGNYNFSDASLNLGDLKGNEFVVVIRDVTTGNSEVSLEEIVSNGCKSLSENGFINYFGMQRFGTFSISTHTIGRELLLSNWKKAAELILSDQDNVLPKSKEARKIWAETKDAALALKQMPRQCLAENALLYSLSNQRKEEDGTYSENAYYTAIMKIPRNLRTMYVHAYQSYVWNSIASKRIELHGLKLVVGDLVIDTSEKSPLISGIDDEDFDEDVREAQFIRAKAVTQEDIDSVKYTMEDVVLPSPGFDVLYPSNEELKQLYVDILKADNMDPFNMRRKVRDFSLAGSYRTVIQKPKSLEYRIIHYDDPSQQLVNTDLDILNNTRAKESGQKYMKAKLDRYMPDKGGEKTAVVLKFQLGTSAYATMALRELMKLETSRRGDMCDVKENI

The term Kd denotes the constant that tells how readily two partners part at equilibrium. Higher therefore signals weaker binding.

B1: CDC8 (cdc8-FL, 61 nt) (ssRNA)
RNA: GUCAAUCACGAUUGUAGACGUUACUAAUAAGGGCAUUCAGGAAGUUGAAGCGCUUAUUUGG
Consider B1, for which the Kd in data set [1] is 210 ± 50 nM; in data set [2], 230 ± 60 nM; in data set [3], 170 ± 40 nM.
